From US10280205B2, “Method for treating cancer with an activated T lymphocyte that selectively recognizes a cancer cell consisting of specific peptide” (immatics biotechnologies GmbH, priority 2015, dated 2019) come the findings set out here.

This test has as its target HLA-A*02:01 (Homo sapiens, UniProt P04439, D140Y/D185E/D98H/E176V/E277Q/G131W/G231S/I119V/I121R/I166T/I218V/L300P/L318F/N151K/N90K/P208A/P217A/Q86G/Q94H/R138H/R169H/T345S). In words: MHC binding assay: UV-ligand exchange with beta2m ELISA (exchange yield). The conditions noted are these: binding to HLA-A*02:01, β2m ELISA. Summed up:
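Peptide–HLA-A*02:01 complexes formed by UV-induced exchange of a photocleavable ligand for the test peptide. Exchange products diluted 100-fold and captured on streptavidin-coated plates. Stabilized complexes detected with HRP anti-β2m (1 h, 37° C.) and TMB, A450; exchange yield reported.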
Background: In an ELISA, binding on a coated surface is turned into a signal by an enzyme label.
In the case of “356 (KLLGKLPEL; listed as Homo sapiens) [compound 356]”, the “Peptide exchange (MHC class I binding score, peptide exchange yield)” value (“Peptide exchange” below) is given as ““+++” (≥50 = +++)”. The value for “589 (KLYPQLPAEI; listed as Homo sapiens) [compound 589]” was ““+++” (≥50 = +++)”; that for “439 (YLLQEIYGI; listed as Homo sapiens) [compound 439]” was ““+++” (≥50 = +++)”. With “34 (ILVEADSLWVV; listed as Homo sapiens) [compound 34]”, the “Peptide exchange” value was ““+++” (≥50 = +++)”. The value for “524 (ALIENLTHQI; listed as Homo sapiens) [compound 524]” was ““++” (≥20% = ++)”; that for “95 (SVIPQIQKV; listed as Homo sapiens) [compound 95]” was ““+++” (≥50 = +++)”; that for “472 (KLLEVSDDPQV; listed as Homo sapiens) [compound 472]” was ““+++” (≥50 = +++)”. The value for “68 (SLMELPRGLFL; listed as Homo sapiens) [compound 68]” was ““++++” (≥75% = ++++)”; that for “78 (SLFSSLEPQIQPV; listed as Homo sapiens) [compound 78]” was ““+++” (≥50 = +++)”; that for “614 (LLLPDQPPYHL; listed as Homo sapiens) [compound 614]” was ““+++” (≥50 = +++)”. In the case of “473 (AMATESILHFA; listed as Homo sapiens) [compound 473]”, the “Peptide exchange” value is ““+++” (≥50 = +++)”. For “103 (TLAEEVVAL; listed as Homo sapiens) [compound 103]”, the “Peptide exchange” value is ““+++” (≥50 = +++)”. In the case of “180 (FQIDPHSGLVTV; listed as Homo sapiens) [compound 180]”, the “Peptide exchange” value was ““++” (≥20% = ++)”. Regarding “182 (MLLEAPGIFL; listed as Homo sapiens) [compound 182]”, the “Peptide exchange” value was ““+++” (≥50 = +++)”. Turning to “139 (SVMEVNSGIYRV; listed as Homo sapiens) [compound 139]”, the “Peptide exchange” value is on record as ““+++” (≥50 = +++)”. For the substance “174 (ALAQYLITA; listed as Homo sapiens) [compound 174]”, the “Peptide exchange” value was ““+++” (≥50 = +++)”. For “617 (ALMYESEKVGV; listed as Homo sapiens) [compound 617]”, the “Peptide exchange” value is ““+++” (≥50 = +++)”. The value for “399 (YLFEPLYHV; listed as Homo sapiens) [compound 399]” was ““+++” (≥50 = +++)”; that for “61 (FLQGYQLHL; listed as Homo sapiens) [compound 61]” was ““++++” (≥75% = ++++)”; that for “9 (GAAKDLPGV; listed as Homo sapiens) [compound 9]” was ““++” (≥20% = ++)”. Take “615 (VLPPDTDPA; listed as Homo sapiens) [compound 615]”: the “Peptide exchange” value is ““++” (≥20% = ++)”. Take “184 (YLMDINGKMWL; listed as Homo sapiens) [compound 184]”: the “Peptide exchange” value is reported as ““+++” (≥50 = +++)”.

Take “191 (LLQEGQALEYV; listed as Homo sapiens) [compound 191]”: the “Peptide exchange” value is ““++” (≥20% = ++)”. With “514 (ILVDWLVQV; listed as Homo sapiens) [compound 514]”, the “Peptide exchange” value was ““+++” (≥50 = +++)”. For “575 (YLISQVEGHQV; listed as Homo sapiens) [compound 575]”, the “Peptide exchange” value is ““+++” (≥50 = +++)”. “212 (ALWDQDNLSV; listed as Homo sapiens) [compound 212]”: the “Peptide exchange” value is listed as ““++” (≥20% = ++)”. As for “210 (LLLNAVLTV; listed as Homo sapiens) [compound 210]”, the “Peptide exchange” value was ““++” (≥20% = ++)”. On to “307 (ALPVSLPQI; listed as Homo sapiens) [compound 307]”, for which the “Peptide exchange” value was ““+++” (≥50 = +++)”. As to “570 (ALANQIPTV; listed as Homo sapiens) [compound 570]”, the “Peptide exchange” value was ““++” (≥20% = ++)”. Take “76 (ILIDSIYKV; listed as Homo sapiens) [compound 76]”: the “Peptide exchange” value is given as ““+++” (≥50 = +++)”. Consider “502 (RLLAQVPGL; listed as Homo sapiens) [compound 502]”, for which the “Peptide exchange” value is reported as ““+++” (≥50 = +++)”. As to “301 (FLVEDLVDSL; listed as Homo sapiens) [compound 301]”, the “Peptide exchange” value is reported as ““+++” (≥50 = +++)”. Regarding “385 (SLLEQGLVEA; listed as Homo sapiens) [compound 385]”, the “Peptide exchange” value is recorded as ““++” (≥20% = ++)”.

With “548 (ALWENPESGEL; listed as Homo sapiens) [compound 548]”, the “Peptide exchange” value is recorded as ““++” (≥20% = ++)”. As for “610 (LLAPTPYIIGV; listed as Homo sapiens) [compound 610]”, the “Peptide exchange” value is ““+++” (≥50 = +++)”. The value for “359 (YLLPESVDL; listed as Homo sapiens) [compound 359]” was ““+++” (≥50 = +++)”; that for “549 (AMLENASDIKL; listed as Homo sapiens) [compound 549]” was ““+++” (≥50 = +++)”. As for “242 (AIAYILQGV; listed as Homo sapiens) [compound 242]”, the “Peptide exchange” value is listed as ““++” (≥20% = ++)”.

As to “229 (RLPGPLGTV; listed as Homo sapiens) [compound 229]”, the “Peptide exchange” value is given as ““++” (≥20% = ++)”. As for “233 (VLSETLYEL; listed as Homo sapiens) [compound 233]”, the “Peptide exchange” value is on record as ““++” (≥20% = ++)”. For the substance “450 (FMIDASVHPTL; listed as Homo sapiens) [compound 450]”, the “Peptide exchange” value is ““+++” (≥50 = +++)”. For “352 (SLLELLHIYV; listed as Homo sapiens) [compound 352]”, the “Peptide exchange” value is recorded as ““+++” (≥50 = +++)”. As to “227 (ALMNTLLYL; listed as Homo sapiens) [compound 227]”, the “Peptide exchange” value was ““++” (≥20% = ++)”. Regarding “272 (ALGNTVPAV; listed as Homo sapiens) [compound 272]”, the “Peptide exchange” value is ““+++” (≥50 = +++)”. In the case of “403 (KLYDRILRV; listed as Homo sapiens) [compound 403]”, the “Peptide exchange” value is ““++” (≥20% = ++)”.

For the substance “192 (KMLDGASFTL; listed as Homo sapiens) [compound 192]”, the “Peptide exchange” value is recorded as ““+++” (≥50 = +++)”. As to “380 (TLIEDEIATI; listed as Homo sapiens) [compound 380]”, the “Peptide exchange” value was ““++” (≥20% = ++)”. The value for “591 (SMAELDIKL; listed as Homo sapiens) [compound 591]” was ““+++” (≥50 = +++)”. As for “50 (SLSELEALM; listed as Homo sapiens) [compound 50]”, the “Peptide exchange” value is ““+++” (≥50 = +++)”. Turning to “353 (YLFEMDSSL; listed as Homo sapiens) [compound 353]”, the “Peptide exchange” value is on record as ““++” (≥20% = ++)”. The value for “45 (SLWQDIPDV; listed as Homo sapiens) [compound 45]” was ““+++” (≥50 = +++)”; that for “366 (RLLDMGETDLML; listed as Homo sapiens) [compound 366]” was ““+++” (≥50 = +++)”. Consider “346 (LLDSKVPSV; listed as Homo sapiens) [compound 346]”, for which the “Peptide exchange” value is ““+++” (≥50 = +++)”. For the substance “567 (SLLPLDDIVRV; listed as Homo sapiens) [compound 567]”, the “Peptide exchange” value is recorded as ““+++” (≥50 = +++)”. In the case of “394 (LLAVIGGLVYL; listed as Homo sapiens) [compound 394]”, the “Peptide exchange” value is ““+++” (≥50 = +++)”.

In the case of “377 (FLLDSSASV; listed as Homo sapiens) [compound 377]”, the “Peptide exchange” value is given as ““++” (≥20% = ++)”. Take “474 (YLDPALELGPRNV; listed as Homo sapiens) [compound 474]”: the “Peptide exchange” value is on record as ““+++” (≥50 = +++)”. On to “80 (FLYDNLVESL; listed as Homo sapiens) [compound 80]”, for which the “Peptide exchange” value was ““++” (≥20% = ++)”. As for “507 (KLIDDQDISISL; listed as Homo sapiens) [compound 507]”, the “Peptide exchange” value is on record as ““+++” (≥50 = +++)”. The value for “517 (LLMPIPEGLTL; listed as Homo sapiens) [compound 517]” was ““+++” (≥50 = +++)”. On to “500 (SLMEDQVLQL; listed as Homo sapiens) [compound 500]”, for which the “Peptide exchange” value was ““+++” (≥50 = +++)”.
